Experimental findings from PMC5543139 are described below.

As a reminder, the Kd is the concentration at which binding is half-saturated.

The series addresses glucagon receptor on CHO-GCGR cells (human) (UniProt P47871). Description: flow cytometry on live cells. The following applies: D-PBS pH 7.4, 5 mM MgCl2, 4.5 g/L glucose, 0.1 mg/mL yeast tRNA, 1 mg/L BSA; 4 C, 1 h (45 min in Results for Kd). On the technique in general: Flow cytometry measures light scatter and fluorescence of single cells or particles in a stream.

Chain of glucagon receptor on CHO-GCGR cells (human) (P47871 26-477): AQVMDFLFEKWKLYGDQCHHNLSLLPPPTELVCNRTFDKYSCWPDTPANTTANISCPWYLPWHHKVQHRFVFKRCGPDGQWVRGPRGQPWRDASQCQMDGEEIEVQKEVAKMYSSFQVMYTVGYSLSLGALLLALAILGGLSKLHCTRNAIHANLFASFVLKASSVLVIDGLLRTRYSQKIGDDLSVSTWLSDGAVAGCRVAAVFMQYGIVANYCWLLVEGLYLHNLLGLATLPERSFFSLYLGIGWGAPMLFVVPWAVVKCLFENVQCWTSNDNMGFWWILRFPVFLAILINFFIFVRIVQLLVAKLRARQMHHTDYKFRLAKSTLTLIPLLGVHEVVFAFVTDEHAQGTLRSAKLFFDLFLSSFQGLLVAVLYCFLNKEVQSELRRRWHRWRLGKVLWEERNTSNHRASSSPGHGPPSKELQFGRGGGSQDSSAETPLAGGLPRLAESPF

“ATCCAGAGTGACGCAGCAGATAAGTAGGTATCCGTTTGAAAAACTTTTCTGACCGTCCGACTATGGACACGGTGGCTTAGT [GR-3]” came in with a Kd of 52.7 nM.
